Data on 17 sequences can be found in the DeepSol protein solubility set.

The nature of the series: soluble on expression in E. coli; label from the status in PepcDB or PDB records.
On to “MVEKPDINYQNKNVLHEINICYLGIMNKSLIALGAQTARRFLSSSSKNTIGGGDANRADTGVLDGYHINPLEESDMTDRSRISMLSTEMLEAKQIGVRGLSCYGFRLLDGTFLYGPIALFPKTALSWRVPTPEDITPRSLALFAALEPKIDILVLGVGDKKNIDKVRASVAPFLREHKIGLEIMDTEDAIATFNFLNAEGRYVGAALYPPDDMVVTDKEYGRALALLKGWDTVEENPLLTGLSDTINGAEDLVKRLWSGDEKSWQSARQKVLESPSEREERMQQEMNDKEKKRIE”, for which the “soluble on expression in E. coli” value is listed as “not soluble”.
As for “MIVWSVANQKGGVGKTTTTITLAGLLSQQGKRVLLVDTDPHASLTTYLGYDSDGVPASLFDLFQLREYNEASVKPLILNTDIQGIDLIPAHMSLATLDRVMGNRSGMGLILKRALLALRHVYDYVLIDCPPILGVMMVNALAASDRILIPVQTEFLAMKGLERMVRTLAIMQKSRSREFKVTIVPTMYDKRTRASLQTLNQLKKDYPDKVWTSAVPIDTKFRDASLQRLPASHFAEGSRGVFAYKQLLLFLERLAIDE”, the entry is “not soluble”; as for “MSSRHRLDLDGSGRGDRRRSPNRRSRSRSRSPHRRSSPDRKRQIGAVGNMKIQINPYNNQPFSNRYWAIWEKRSQLPVWEYKEKFMELLRNNQCITLVGETGSGKTTQIPQWAVEFMKQQQQGQPPGQARLVACTQPRRVAAMSVATRVAEEMDVVLGQEVGYSIRFEDCISERTVLKYCTDGMLLREAMNSPLLDKYKVLILDEAHERTLATDILMGLIKEIVRNRADIKVVIMSATLDAGKFQRYFEDCPLLSVPGRTFPVEIFFTPNAEKDYLEAAIRTVIQIHMVEEVEGDILLFLTGQEEIEEACKRIDREIQALGADAGALSCIPLYSTLPPAAQQRIFEPAPPNRPNGAISRKCVISTNIAETSLTIDGVVFVIDPGFSKQKVYNPRIRVESLLVCPISKASAMQRAGRAGRTKPGKCFRLYTETAYGSEMQDQTYPEILRSNLGSVVLQLKKLGTEDLVHFDFMDPPAPETLMRALELLNYLQAINDDGELTELGSLMAEFPLDPQLAKMLITSTELNCSNEILSITAMLSVPQCWVRPNEMRTEADEAKARFAHIDGDHLTLLNVYHSFKQNQEDPQWCYDNFINYRTMKTADTVRTQLSRVMDKYNLRRVSTDFKSRDYYLNIRKALVAGFFMQVAHLERSGHYVTVKDNQLVNLHPSTVLDHKPEWALYNEFVLTTKNFIRTVTDVRPEWLLQIAPQYYDLDNFPDGDTKRKLTTVMQTLQRNAGRGY”, “soluble”.
On to “MGSDKIHHHHHHMIKQVNPHFKEFLFDWNQKFQFLVGGYGSSKSYHVALKIVLKLLREKRTALVIREVYDTHRDSTFSLFDELVSDLKLDHIVRCVSSPMQIRFSNGSRIIFKGMDKPAKLKSINNISLIWIEECSEVKYEGFKELLGRLRHPTLPLHMILSTNPVGEDNWTFKHFFKDDREKRFVLDDKELYEKRIIVSNDTYYHHSTADDNLFLPESYVQQLEELKEYDPDLYRIARKGHFGVNGIRVLPQFEERPHEEVMTAISNINRPLKRVGMDFGFVESYNAVVRVAVDHEKKYLYIYWEYYKNGLTDDKTAEELKEFAETKELIKADSAEPKTIRYFQQHGFNMVGARKYQGSRLQYTKKIKRFRKIICSDRCENTIYELKPLAYATDKLGNIIEDEFTIDPHTLSAIWYALDDYEVTDLKEESKGRPQRSRPGRR”, for which the “soluble on expression in E. coli” value is recorded as “not soluble”.
As for “MAHHHHHHMLTTYNIIWKKEEEDDSLNIEKRNRLFHEHVKEQKNDILSPSEFDLLVNDIEDLLEEQQINETEKLYKVSKSPNEKFNKKYKLSITDLSAQLWCEQQLELVLTTGKRRETEAMRLGIERHEILEKADHLIVNVEVNTREESLGYRLLNSITLLGQLFQTKKAREVWVFGIIRNYVLRGIIDELRIEYDNVTKKEYLIISDTKTRKEKKEPSLAQKRTSAIQVQTYCLILQQLKNGKADFKKLFEIYECDPLFEFTAVDLVKYKNLENLSIELNKLFMKLPKIKEEMEIVYEHEGKEFSRNLIPYFYHSTLYTINILLDYWDGKRSSDVVENSDKWKCKFCDFVKNCVRCPLDY”, the entry is “not soluble”.
Take “GPGSMHAFRTRDITLRVPSKDKLLRFSFCSSRHLLAETIRRHDLLRSTGAHVDFLQLLGTQITFTSLLASALEGEERVEARFTAEEATILTEALALGECRCYLRPEYNAQLAECGLPTFPLRVNRILYRQEKPFSSVVHADLAELLQPPCDVASSFAAASSGANEASGAPFSLYLPDMERRVPLEAWKSFFSYNSSLHAYNYLRRSDGSVPAVWLQSRIDAVRLVDHGFLNVDSTAAAAAWQRGEACSDEDDEKAQDIRRALLHAIPFSFGVVVTPLAAGVAVDQRVNQLNRVVMEAAALLSAPSGGGATVTSALQPLLDRCAEKHTACQHILSLVSGDHDGAYQAAVAARQYNDDPAQVAAVVDPIRRALGVQDFVVPLAATEAARSGLDFFCRCSKQNVLESLVSAPPRALESLKGSDNTVHCSFCGRRYKLAGAEWQELEMARSASTPPQ”: the “soluble on expression in E. coli” value is reported as “not soluble”.
As for “MKILAISDPHGDYSKMKQIIEKAGDFDLAVVVGDITNFGPDEQVDELAEMFDKPVLAIPGNCDQKTILEALENSKAVNLHGKAEQIGKIRFIGLGGSNPTPFNTPFELSEEEIENALEGMVCSAENSGECGTIVLLTHAPPLGARDELPFGHVGSKAIQKFLDRVDLIVCGHIHEAKGSEKVGKTVVVNPGEACKGSCALIEIEETGNKPIEVEFVEVLEHHHHHH”, the entry is “not soluble”.
As for “MGSDKIHHHHHHMHEDHFDKFVQKNLDRNIPIVTTEEAGKSLKELGFMKRHPLKTWDTLIVERGNTLLRVTAMPGRHGPPIVAELLPEVMGSLLDFGIKNSPRSYRMYISGDTMVFDDIKEIPRRYPDVDLALLHLGGTRLLGLVTVTMDAKEGVKMMQLIVPRKAIPIHYNDYDVFKSPLSDFKKEMERAGLQDKIIYLEHGDTYEFDLEEK”, the entry is “not soluble”; as for “GELMPPQLQNGLNLSAKVVQGSLDSLPQAVREFLENNAELCQPDHIHICDGSEEENGRLLGQMEEEGILRRLKKYDNCWLALTDPRDVARIESKTVIVTQEQRDTVPIPKTGLSQLGRWMSEEDFEKAFNARFPGCMKGRTMYVIPFSMGPLGSPLSKIGIELTDSPYVVASMRIMTRMGTPVLEALGDGEFVKCLHSVGCPLPLQKPLVNNWPCNPELTLIAHLPDRREIISFGSGYGGNSLLGKKCFALRMASRLAKEEGWLAEHMLVLGITNPEGEKKYLAAAFPSACGKTNLAMMNPSLPGWKVECVGDDIAWMKFDAQGHLRAINPENGFFGVAPGTSVKTNPNAIKTIQKNTIFTNVAETSDGGVYWEGIDEPLASGVTITSWKNKEWSSEDGEPCAHPNSRFCTPASQCPIIDAAWESPEGVPIEGIIFGGRRPAGVPLVYEALSWQHGVFVGAAMRSEATAAAEHKGKIIMHDPFAMRPFFGYNFGKYLAHWLSMAQHPAAKLPKIFHVNWFRKDKEGKFLWPGFGENSRVLEWMFNRIDGKASTKLTPIGYIPKEDALNLKGLGHINMMELFSISKEFWDKEVEDIEKYLVDQVNADLPCEIEREILALKQRISQM”, “soluble”; as for “MDLEFGRFPIFSILEDMLEAPEEQTEKTRNNPSRAYMRDAKAMAATPADVIEHPDAYVFAVDMPGIKGDEIQVQIENENVLVVSGKRQRDNKENEGVKFVRMERRMGKFMRKFQLPDNADLEKISAACNDGVLKVTIPKLPPPEPKKPKTIQVQVA”, “soluble”.
As for “SSASDGFKANLVFKEIEKKLEEEGEQFVKKIGGIFAFKVKDGPGGKEATWVVDVKNGKGSVLPNSDKKADCTITMADSDFLALMTGKMNPQSAFFQGKLKITGNMGLAMKLQNLQLQPGNAKL”, the entry is “soluble”; as for “MGSDKIHHHHHHDSKQSQDLIVKTAQAVSASGIKTTEFPFIAQPFRTSELSFRVGGPIDRLDVYAGNHYKQGSIIAEIDPRDFHIRKERAEAIYHQAKAEFERIEKLYEKNNVSASTYEKTKADYTTAKTAFDTASNELGDTRLTAPFDGYVGEVYIEKYQDVKPAQPVISFIDINRLKIEIYVTQNIAFASHPTDSVRIYFDAQPDKYYKAQIVEVSKGTTRNNLSYLLTAVLPNKEGKLLAGMSGKAIFDAPGTTDLTGVSIPQTALCYRPSEGEYVWVIDTNTRQVNRRTVKKGNLLPGGYVTITEGLRASETVATSGLRFLSDGMKVEISTKTNSL”, “not soluble”.
For “MKHMEKFANHFGYNRMFAKDQLTLGVHIPIENYQFHAPTMEKQVELVQKAEQYGFTGVWLRDVLLQDPDFGDPATGQIYDMMIYLTYLASKTEKIAFGTSATVLSLRHPLRVAKEIATLDQLFPERIMLGVSSGDRRADFKALGVSHETRGEKFREAFAYLEEILYKNFPSIQSTLGEVHGANLVPKPSKRVPTFITGFSQQNMEWFAEHGDGWMYYPRSPVHQAGAIGQWRELVEDYHPDVFKPFIQPMHLDLSEDPNERPTPIRLGYRTGRKALIELLDIYKSIGVNHLFLALFDGQRPADEVLDELGEEVLPHFPAL”, the “soluble on expression in E. coli” value is listed as “soluble”.
As for “MSLAKKKEIKLEDALWKSADKLRKNIDAAEYKHIVLGLIFLRYISDSFMQKYEELLKEQDDGADPEDADEYLADNIFFVPEKSRYNYIRDNAKNPKIGKMLDEAMDEIEKHNDTLKGVLPKVYAKDNLDSKCLGELIDLIGNIAFDTGKSTDVLGHVFEYFLGEFALAEGKQGGQFYTPKCVVELLVTMLEPYKGRVFDPCCGSGGMFVQSEEFVKSHQGRLDDISIYGQESNQTTYKLAKMNLAIRKIESSQVIWNNEGSFLNDAHKDLKADFIIANPPFNDSDWSGELLENDGRWKYGVPPASNANYAWIQHFLYHLSPNGGVAGFVLAKGALTSNTTNEAAIRKALIEDDLIDCIVNLPAKLFLNTGIPASLWFIRRQKLPKTVKKTLFIDARDLGTRINRRNKTLNKDDINQIANIYKAWKNGTDYEDIKGFCKSVSIDEIRELSYVLTPGRYVGLADSDDEFDFDTRFNELLAKLKSQIKTEQELSEIILKNLEKIKEGHHHHHH”, the entry is “soluble”; as for “MASMTGGQQMGRGSEEPNPNDGYDYMQHGFDWPGLQEGGTTKYPACSGSNQSPIDINTNQLMEPSSRSGTSAVSLNGLNVDGAQADGITLTNAKVDLEQGMKVTFDQPAANLPTIEIGGTTKSFVPIQFHFHHFLSEHTINGIHYPLELHIVMQEQDPADVATAQLAVIGIMYKYSENGDAFLNSLQTQIEGKIGDGTASYGDTGVSIDNINVKTQLLPSSLKYAGYDGSLTTPGCDERVKWHVFTTPREVTREQMKLFVDVTMGAHAGADVVNNRMIQDLGDREVYKYNY”, “soluble”; as for “MVRVYIGRLPNRASDRDVEHFFRGYGKLSDVIMKNGFGFVDFQDQRDADDAVHDLNGKELCGERVILEFPRRKVGYNEERSGSGFRGREPTFRKGGERQFSNRYSRPCSTRFRLVIDNLSTRYSWQDIKDHIRKLGIEPTYSEAHKRNVNQAIVCFTSHDDLRDAMNKLQGEDLNGRKLKCTDETRDRSRSRSPRRRSRSRSPTRSRSPPARRRSPGSDRSDRKSRSASPKKRSDKRARSESKSRSRSGGRRSRSNSPPNRSPSPKKRRDNSSPRSGSASP”, “not soluble”.
As for “KVKFTEEEDLKLQQLVMRYGAKDWIRISQLMITRNPRQCRERWNNYINPALRTDPWSPEEDMLLDQKYAEYGPKWNKISKFLKNRSDNNIRNRWMMIARHRAKHQKS”, the entry is “soluble”.
